Laboratory results: the Human Domainome abundance scans (Beltran et al. 2025)

B1: PMS1 protein homolog 1, residues 572 to 637; numbered along this chain, P54277 (parent)
chain: KKPMSASALFVQDHRPQFLIENPKTSLEDATLQIEELWKTLSEEEKLKYEEKATKDLERYNSQMKR

Variants of: B1
Test: abundance fitness (aPCA) (normalised: wild type 0, dead -1); higher = more abundant; growth selection in yeast, the domain comes from the species named
Details: Homo sapiens

Abundance fitness of substitutions, site by site:
S5: L -0.283, R -0.293, T 0.095, D -0.341, C -0.333, G -0.032, P 0.322, I -0.336, A -0.252, M -0.411, W -0.874, E -0.031, K -0.179
F10: A -0.608, D -0.487, Q -0.466, S -0.422, V -0.812, N -0.655, K -0.368, H -0.183, M -0.433, W -0.267, G -0.791, P -0.686, L -0.731, R -0.651, E -0.483
E35: K -0.26, Q -0.414, P -0.14, R -0.142, H -0.171, M -0.038, V -0.548, N -0.389, I -0.33, S -0.189, C -0.274, W -0.774, T -0.207, D -0.86, A -0.2, F -0.251
A30: L -0.634, H -0.34, G -0.401, Q -0.439, R -0.666, T -0.668, E -0.414, W -0.632, V -0.29
A6: R -0.637, K -0.348, Q -0.493, C -0.281, S -0.195, Y -0.925, W -1.87, I -1.17, G -0.306, D -0.665, T -0.646, M -0.704, E -0.607, P -0.38
T25: F 0.201, A 0.042, V 0.116, N -0.192, G -0.387, R -0.317, K -0.302, L -0.096, H -0.395, Q -0.143, C -0.159, P -0.627, W -0.531, M -0.156
L32: D -0.283, E -0.144, K 0.002, S -0.18, T -0.246, R 0.019, G -0.261, V -0.117, P -0.349, Q -0.15, W -0.156, M 0.043, I -0.172
D13: G -0.844, C -0.66, N -0.556
D29: N -0.119
T31: L -0.433, D -0.11, R -0.089, E -0.142, M -0.516, S -0.335, Q -0.359, P -0.599, G -0.321, F -0.325
K1: S -0.602, E -0.022, F -0.498, G -0.225, C 0.184, R -0.216, V -0.191, Y -0.174, M -0.057
K2: E -0.433, Q -0.545, H 0.115, R -0.332, P -0.201, I -0.475, L -0.08, F -0.242, C -0.095, M -0.321, S -0.201, G -0.696
E21: D -0.446
Q12: A 0.258, T -0.54
Q33: A -0.05, D -0.24, T -0.454, K -0.06, V -0.329, S -0.23, R -0.229, W -0.696, P -0.579, M -0.283, G -0.405, E -0.124
W38: H 0.034, T -0.343, G -0.304, F -0.299, V -0.504, L -1.01, A -0.369, D 0.097, R -0.292, E -0.135
H14: Y -0.063
V11: I -0.432
M4: E -0.002, P -0.064, R -0.106, F -0.12, C -0.627, T -0.05, N -0.157, Q 0.043, W -0.485, H -0.044, Y -0.091, L -0.017, V -0.091, K 0.057, A -0.072
T40: M -0.165, S -0.128, D -0.101, F -0.041, N -0.086, G -0.041, R -0.125, W -0.253, E -0.028, H -0.087, A -0.294, Y -0.387, I -0.165, L -0.114, V -0.239, P -0.537, C 0.115, K -0.099, Q -0.094
L9: G -0.308, P -0.98, F -0.131, V -0.2, N -0.467, A -0.61, Q 0.032, M -0.167, Y -0.155, K -0.044, R -0.017, S -0.254, T -0.287
L41: I -0.202, H -0.467, G -0.315, F -0.733, E -0.295, D -0.319, C -0.196
P16: E -0.087, I -0.224, T -0.159, L -0.401, R -0.08, C -0.357, W -0.421, Y -0.198, D 0.118, Q -0.041, M -0.447, S -0.214, A -0.06, G -0.244, V -0.47, K -0.17
S26: R -0.282, G -0.223, H -0.349, K -0.155, A -0.229, F -0.775, T -0.061, Y -0.861, W -1.3, Q -0.327, M -0.482, N -0.167, C -0.111, L -0.538, V -0.654, D -0.102, P -0.21, I -0.605, E -0.317
R15: S -0.41, K -0.38, E -0.409, W -0.408, H -0.227, T -0.111, A -0.039, P -0.541, G -0.559, N -0.769, D -0.729, Q -0.336, L 0.003, F 0.035, V 0.033, M 0.07
L27: G -0.308, E -0.538, F 0.224, Q -0.532, M -0.089, Y -0.079, T -0.101, S -0.048, V -0.132, C -0.384, P 0.057, A -0.127
L37: C -0.278, R -0.091, K 0.116, I -0.357, E -0.359, P -0.995, A -0.052, Y -0.459, W -0.386, G -0.175, S -0.083, H -0.01, M -0.319, V -0.127, T -0.123
K39: A -0.062, I -0.535, P -0.252, D -0.308, S -0.081, R -0.285, V -0.465, G -0.875, Y -0.104, L -0.22, E -0.095, C -0.156, W -0.507, H -0.205, Q 0.017
S7: T -0.122, W -0.388, H -0.144, F -0.108, A 0.007, D 0.036, E 0.017, C -0.28, N -0.055, L -0.087, G -0.134, M 0.235, K 0.069, R 0.121, Q 0.176
A8: R -0.119, V -0.457, W -0.347, G -0.223, E 0.147, D -0.162, L -0.288
P3: K -0.368, A -0.464, C -0.358, S -0.605, W -0.545, N 0.031, M -0.333, I -0.305, T 0.049
